Results taken from patent US20190153059A1 (ADEPTHERA, published 2019).
Square brackets hold non-standard residues; d marks the D form. Ends that are not written are not given here. * marks the point of attachment. Palmitoyl = CCCCCCCCCCCCCCCC(=O)*; AEEA = NCCOCCOCC(=O)O

Biological target: CLR/RAMP2 receptor (UniProt Q16602 23-461; O60895 43-175, limits assumed)
Assay: cell-based or functional assay

Chain of CLR/RAMP2 receptor (Q16602 23-461 limits assumed, chain 1 of 2): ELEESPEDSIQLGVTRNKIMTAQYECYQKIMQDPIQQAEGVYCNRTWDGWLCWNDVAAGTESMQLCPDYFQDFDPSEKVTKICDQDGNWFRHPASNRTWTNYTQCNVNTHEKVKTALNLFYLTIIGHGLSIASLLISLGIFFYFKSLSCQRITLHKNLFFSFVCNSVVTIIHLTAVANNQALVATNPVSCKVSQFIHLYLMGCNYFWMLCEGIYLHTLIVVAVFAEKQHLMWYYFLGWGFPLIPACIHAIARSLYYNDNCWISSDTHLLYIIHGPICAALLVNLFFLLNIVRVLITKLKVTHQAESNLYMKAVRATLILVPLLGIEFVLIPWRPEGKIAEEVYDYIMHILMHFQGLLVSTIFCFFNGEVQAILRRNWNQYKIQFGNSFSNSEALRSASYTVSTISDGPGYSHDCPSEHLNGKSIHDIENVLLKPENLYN
Chain of CLR/RAMP2 receptor (O60895 43-175 limits assumed, chain 2 of 2): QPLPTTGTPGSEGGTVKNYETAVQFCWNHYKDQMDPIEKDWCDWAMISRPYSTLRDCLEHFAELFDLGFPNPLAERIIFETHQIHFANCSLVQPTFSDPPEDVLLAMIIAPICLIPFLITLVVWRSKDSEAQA

| CLR/RAMP2 EC50 [nM] | CLR/RAMP2 Max Activity | Binder |
| --- | --- | --- |
| 17 |  | Ac-VGCRFGTCTVQKLAHQIYQFTDKDKDNSAPVDPSSPHSY-NH2 (ends and bridges not checked) [SEQ ID NO: 56] |
| 0.7 | 107 % of positive control | KGCRFGTCTVQKLAHQIYQFTDKDVAPRSKISPQGY (miniPEG- at N-terminus; K(PAL); (D-Ser) in ...VAPR(D-Ser)KISPQGY; -NH2) [SEQ ID NO: 213] |
| 0.4 | 99 % of positive control | KGCRFGTCTVQKLAHQIYQFTDKDVAPRSKISPQGY (miniPEG- at N-terminus; K(PAL); (D-Gln) in ...KISP(D-Gln)GY; -NH2) [SEQ ID NO: 214] |
| 0.9 | 22 % of positive control | KGCRFGTCTVQKLAHQIYQFTDKDVAPRSKISPQGY (miniPEG- at N-terminus; K(PAL); (D-Val) in ...GTCT(D-Val)QKL...; -NH2) [SEQ ID NO: 211] |
| 0.7 |  | Palmitoyl-KGCRFGTCTVQKLAHQIYQFTDKDKDNVAPVDPSSPHSY-NH2 (ends and bridges not checked) [SEQ ID NO: 34] |
| 6.4 |  | Palmitoyl-KGCRFGTCTVQKLAHQIYQFTDKDAPVDPSSPHSY-NH2 (ends and bridges not checked) [SEQ ID NO: 110] |
| 19 |  | Ac-K(Palmitoyl)GCRFGTCTVQKLAHQIYQFTDKDKDNVAPRSKSSPHSY-NH2 (ends and bridges not checked) [SEQ ID NO: 65] |
| 149 |  | Ac-VGCRFGTCTVQKLAHQIYQFTPAGRQDSAPVDPSSPHSY-NH2 (ends and bridges not checked) [SEQ ID NO: 57] |
| 1 |  | Palmitoyl-KGCRFGTCTVQKLAHQIYQFTDKDKQDSAPVDPSSPHSY-NH2 (ends and bridges not checked) [SEQ ID NO: 35] |
| 0.9 |  | Palmitoyl-KGCRFGTCTVQKLAHQIYQFTDKGRQDSAPVDPSSPHSY-NH2 (ends and bridges not checked) [SEQ ID NO: 36] |
| 7 |  | Palmitoyl-KGCRFGTCTVQKLAHQIYQFTDKDKDNVAPRSKSSPHSY-NH2 (ends and bridges not checked) [SEQ ID NO: 63] |
| 0.3 |  | [AEEA]K(Palmitoyl)GCRFGTCTVQKLAHQIYQFTDKDKQDSAPVDPSSPHSY-NH2 (ends and bridges not checked) [SEQ ID NO: 51] |
| 49 |  | KGCRFGTCTVQKLAHQIYQFTDKDKDNVAPRSKISPQGY (Pal- at N-terminus; K(Pal); -NH2) [SEQ ID NO: 73] |
| 0.2 |  | TKKTLRTGCRFGTCTVQKLAHQIYQFTDKDKDNVAPVDPSSPHSY (miniPEG- at N-terminus; K(Pal) at position 2 (miniPEG-TK(Pal)K...); -NH2) [SEQ ID NO: 42] |
| 0.9 |  | Palmitoyl-KGCRFGTCTVQKLAHQIYQFTPAGRQDSAPVDPSSPHSY-NH2 (cysteine pairing not given here) [SEQ ID NO: 31] |
| 0.5 | 104 % of positive control | [AEEA]K(Palmitoyl)GCRFGTCTVQKLAHQIYQFTDKDKDSAPVDPSSPHSY-NH2 (ends and bridges not checked) [SEQ ID NO: 46] |
|  | 102 % of positive control | Ac-FGCRFGTCTVQKLAHQIYQFTDKDKDNVAPRSKISPQGY-NH2 (ends and bridges not checked) [SEQ ID NO: 53 (human ADM)] |
| 17 |  | Ac-KGCRFGTCTVQKLAHQIYQFTDKDSAPVDPSSPHSY-NH2 (cysteine pairing not given here) [SEQ ID NO: 93] |
| 0.7 |  | Palmitoyl-KTKKTLRTGCRFGTCTVQKLAHQIYQFTDKDKDNSAPVDPSSPHSY-NH2 (ends and bridges not checked) [SEQ ID NO: 38] |
| 0.4 | 64 % of positive control | KGCRFGTCTVQKLAHQIYQFTDKDKSAPVDPSSPHSY (miniPEG- at N-terminus; K(PAL); -NH2) [SEQ ID NO: 47] |
| 0.5 |  | Ac-TK(Palmitoyl)KTLRTGCRFGTCTVQKLAHQIYQFTDKDKDNSAPVDPSSPHSY-NH2 (ends and bridges not checked) [SEQ ID NO: 39] |
| 0.4 |  | Ac-K(Palmitoyl)GCRFGTCTVQKLAHQIYQFTPAGRQDSAPVDPSSPHSY-NH2 (cysteine pairing not given here) [SEQ ID NO: 33] |
| 0.6 |  | Palmitoyl-KGCRFGTCTVQKLAHQIYQFTDKDKDNSAPVDPSSPHSY-NH2 (cysteine pairing not given here) [SEQ ID NO: 30] |
| 18 |  | Ac-KGCRFGTCTVQKLAHQIYQFTDKDKDNSAPVDPSSPHSY-NH2 (ends and bridges not checked) [SEQ ID NO: 59] |
| 3 |  | Ac-KGCRFGTCTVQKLAHQIYQFTDKDKDNVAPVDPSSPHSY-NH2 (ends and bridges not checked) [SEQ ID NO: 60] |

Biological target: CLR/RAMP1 receptor (UniProt Q16602 23-461; O60894 27-148, limits assumed)
Assay: cell-based or functional assay

Chain of CLR/RAMP1 receptor (Q16602 23-461 limits assumed, chain 1 of 2): as the sequence (Q16602 23-461 limits assumed, chain 1 of 2) above
Chain of CLR/RAMP1 receptor (O60894 27-148 limits assumed, chain 2 of 2): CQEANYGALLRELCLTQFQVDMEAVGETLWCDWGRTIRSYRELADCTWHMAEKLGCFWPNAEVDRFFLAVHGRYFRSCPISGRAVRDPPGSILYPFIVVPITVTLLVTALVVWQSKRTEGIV

| CLR/RAMP1 EC50 [nM] | CLR/RAMP1 Max Activity | Binder |
| --- | --- | --- |
| 224 |  | Ac-VGCRFGTCTVQKLAHQIYQFTDKDKDNSAPVDPSSPHSY-NH2 (ends and bridges not checked) [SEQ ID NO: 56] |
| 8 |  | KGCRFGTCTVQKLAHQIYQFTDKDVAPRSKISPQGY (miniPEG- at N-terminus; K(PAL); (D-Val) in ...GTCT(D-Val)QKL...; -NH2) [SEQ ID NO: 211] |
| 0.2 |  | Palmitoyl-KGCRFGTCTVQKLAHQIYQFTDKDKDNVAPVDPSSPHSY-NH2 (ends and bridges not checked) [SEQ ID NO: 34] |
| 43 |  | Palmitoyl-KGCRFGTCTVQKLAHQIYQFTDKDAPVDPSSPHSY-NH2 (ends and bridges not checked) [SEQ ID NO: 110] |
| 234 |  | Ac-K(Palmitoyl)GCRFGTCTVQKLAHQIYQFTDKDKDNVAPRSKSSPHSY-NH2 (ends and bridges not checked) [SEQ ID NO: 65] |
| 909 |  | Ac-VGCRFGTCTVQKLAHQIYQFTPAGRQDSAPVDPSSPHSY-NH2 (ends and bridges not checked) [SEQ ID NO: 57] |
| 0.8 |  | Palmitoyl-KGCRFGTCTVQKLAHQIYQFTDKDKQDSAPVDPSSPHSY-NH2 (ends and bridges not checked) [SEQ ID NO: 35] |
| 0.6 |  | Palmitoyl-KGCRFGTCTVQKLAHQIYQFTDKGRQDSAPVDPSSPHSY-NH2 (ends and bridges not checked) [SEQ ID NO: 36] |
| 180 |  | Palmitoyl-KGCRFGTCTVQKLAHQIYQFTDKDKDNVAPRSKSSPHSY-NH2 (ends and bridges not checked) [SEQ ID NO: 63] |
| 0.2 | 65 % of positive control | [AEEA]K(Palmitoyl)GCRFGTCTVQKLAHQIYQFTDKDKQDSAPVDPSSPHSY-NH2 (ends and bridges not checked) [SEQ ID NO: 51] |
| 0.5 |  | KGCRFGTCTVQKLAHQIYQFTDKDKDNVAPRSKISPQGY (Ace-PEG3- at N-terminus; K(Hexadecanoyl-isoGlu); -NH2) [SEQ ID NO: 151] |
| 0.6 |  | KGCRFGTCTVQKLAHQIYQFTDKDKDNVAPRSKISPQGY (Ace-PEG3- at N-terminus; K([19-carboxy-nonadecanoyl]-isoGlu); -NH2) [SEQ ID NO: 155] |
| 34 |  | KGCRFGTCTVQKLAHQIYQFTDKDKDNVAPRSKISPQGY (Pal- at N-terminus; K(Pal); -NH2) [SEQ ID NO: 73] |
| 0.8 | 88 % of positive control | KGCRFGTCTVQKLAHQIYQFTDKDKDNVAPRSKISPQGY (Ace-PEG3- at N-terminus; K([19-carboxy-nonadecanoyl]-PEG3-isoGlu); -NH2) [SEQ ID NO: 156] |
|  | 2 % of positive control | [AEEA]K(Palmitoyl)GCRFGTCTVQKLAHLWQLMGPAGRQDSAPVDPSSPHSY-NH2 (not fully specified; ends and bridges not checked) [SEQ ID NO: 62] |
| 0.8 |  | Palmitoyl-KGCRFGTCTVQKLAHQIYQFTPAGRQDSAPVDPSSPHSY-NH2 (cysteine pairing not given here) [SEQ ID NO: 31] |
|  | 69 % of positive control | Ac-FGCRFGTCTVQKLAHQIYQFTDKDKDNVAPRSKISPQGY-NH2 (ends and bridges not checked) [SEQ ID NO: 53 (human ADM)] |
| 771 |  | Ac-KGCRFGTCTVQKLAHQIYQFTDKDSAPVDPSSPHSY-NH2 (cysteine pairing not given here) [SEQ ID NO: 93] |
| 0.5 |  | Palmitoyl-KTKKTLRTGCRFGTCTVQKLAHQIYQFTDKDKDNSAPVDPSSPHSY-NH2 (ends and bridges not checked) [SEQ ID NO: 38] |
| 0.2 |  | Ac-TK(Palmitoyl)KTLRTGCRFGTCTVQKLAHQIYQFTDKDKDNSAPVDPSSPHSY-NH2 (ends and bridges not checked) [SEQ ID NO: 39] |
| 0.3 |  | Ac-K(Palmitoyl)GCRFGTCTVQKLAHQIYQFTPAGRQDSAPVDPSSPHSY-NH2 (cysteine pairing not given here) [SEQ ID NO: 33] |
| 0.4 |  | Palmitoyl-KGCRFGTCTVQKLAHQIYQFTDKDKDNSAPVDPSSPHSY-NH2 (cysteine pairing not given here) [SEQ ID NO: 30] |
| 31 |  | Ac-KGCRFGTCTVQKLAHQIYQFTDKDKDNSAPVDPSSPHSY-NH2 (ends and bridges not checked) [SEQ ID NO: 59] |
| 16 |  | Ac-KGCRFGTCTVQKLAHQIYQFTDKDKDNVAPVDPSSPHSY-NH2 (ends and bridges not checked) [SEQ ID NO: 60] |
